Data set [1] concerns the target T1, BioR2 (Paracoccus denitrificans PD1222, UniProt A1B662 1-221).
T1 sequence: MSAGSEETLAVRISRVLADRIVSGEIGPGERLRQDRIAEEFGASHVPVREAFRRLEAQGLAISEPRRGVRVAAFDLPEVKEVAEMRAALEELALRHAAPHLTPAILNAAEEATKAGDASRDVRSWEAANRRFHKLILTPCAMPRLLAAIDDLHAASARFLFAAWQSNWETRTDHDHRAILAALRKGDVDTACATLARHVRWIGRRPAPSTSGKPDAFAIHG
In words: EMSA; ~0.2 pmol DIG-labeled probe with BioR (10-20 pmol BioR2 in 15 uL, Fig. 6) in Roche binding buffer, 15 min, room temperature; native 7% PAGE; salt and pH of binding buffer not stated (protein in PBS pH 7.4, 10% glycerol). The note with it: protein: recombinant; tags: 6xHis (pET28a); chain copies: 2; label: digoxigenin; blunt. A general note: Mobility shift assays separate free from complexed probe on a gel.

The target in data set [2] is T1, BioR2. Briefly: EMSA; pimeloyl-ACP (no effect); ~0.2 pmol DIG-labeled probe with BioR (10-20 pmol BioR2 in 15 uL, Fig. 6) in Roche binding buffer, 15 min, room temperature; native 7% PAGE; salt and pH of binding buffer not stated (protein in PBS pH 7.4, 10% glycerol). The note with it: protein: recombinant; tags: 6xHis (pET28a); chain copies: 2; label: digoxigenin; blunt.

Data set [3] concerns the target T1, BioR2. Briefly: competition; cold probe 10, 20, 50 pmol vs 0.2 pmol DIG-bioBFDAGC; ~0.2 pmol DIG-labeled probe with BioR (10-20 pmol BioR2 in 15 uL, Fig. 6) in Roche binding buffer, 15 min, room temperature; native 7% PAGE; salt and pH of binding buffer not stated (protein in PBS pH 7.4, 10% glycerol). The note with it: protein: recombinant; tags: 6xHis (pET28a); chain copies: 2; blunt.

B1: bioYB_pd2 probe (dsDNA)
DNA 1: CAAAGCCTTCGTAATTATAGATAGACTCGATACCTATC
DNA 2: GATAGGTATCGAGTCTATCTATAATTACGAAGGCTTTG
Consider B1, for which, in the data set with BioR2 [1], the binding result is “binds”.

B2: bioR1_pd probe (dsDNA)
DNA 1: GGTGCAGCATGAATTATCTATAATTCATGAAACACG
DNA 2: CGTGTTTCATGAATTATAGATAATTCATGCTGCACC
On to B2, for which the binding result with BioR2 [1] was “binds”.

B3: bioBFDAZ_at (bioB_at) probe (dsDNA)
DNA 1: CTCTCTTGAGGAGGCAAAAATTATCTATAATTTGCCATTTAACGACCTGC
DNA 2: GCAGGTCGTTAAATGGCAAATTATAGATAATTTTTGCCTCCTCAAGAGAG
For B3, the binding result with BioR2 [1] is on record as “binds”.

B4: bioBFDAGC_pd probe (dsDNA)
DNA 1: GGCGCTGACCGTTTTATAGATACTTCCACATGAGGC
DNA 2: GCCTCATGTGGAAGTATCTATAAAACGGTCAGCGCC
On to B4, for which the binding result in the data set with BioR2 [2] is “binds”.

B5: cold bioBFDAGC_pd probe (dsDNA)
DNA 1: B4 DNA 1
DNA 2: B4 DNA 2
For B5, the binding result with BioR2 [3] is listed as “binds”.

B6: bioYB_pd1 probe (dsDNA)
DNA 1: GATTCCCGGATAATTATCTATAAACCTAATTGCCAG
DNA 2: CTGGCAATTAGGTTTATAGATAATTATCCGGGAATC
In the case of B6, the binding result in the data set with BioR2 [1] is given as “binds”.

(Values after article PMC4554459, “Paracoccus denitrificans possesses two BioR homologs having a role in regulation of biotin metabolism”.)
